Data published in patent publication US12692294B2, “Engineered NRG-1 variants with improved selectivity toward ErbB4 but not against ErbB3” (Amgen Inc., priority 2021, dated 2026).
Substitutions are numbered along the chain they refer to. Values belong to the molecule of their own block, whether it stands above or below them.

Assays:
ErbB4 = target: T1, ErbB4 (Rattus norvegicus, UniProt Q62956); assay: In vitro phosphorylation of Akt in neonatal rat cardiomyocytes; type: cell-based; details: for EC50: Akt (Serine 473) phosphorylation, neonatal rat cardiomyocytes, 15 minutes treatment, read-out: Cardiomyocyte (CM) (ErbB4) Avg EC50; for Selectivity SC/CM: ratio of EC50s Schwann cells/cardiomyocytes; for CM % Agonism AVG: top value of the Akt phosphorylation data points in cardiomyocytes, wild-type control 100
T1 construct: forming the ErbB2/ErbB4 complex in cardiomyocytes and the ErbB2/ErbB3 complex in Schwann cells; endogenous in cells; host or cells: primary neonatal rat cardiomyocytes (Sprague Dawley pups, 0 to 4 days old)
Experimental: (§1) In Vitro Phosphorylation of Akt in Neonatal Rat Cardiomyocytes and Rat Schwann Cells by Neuregulin Variants
(§2) Specificity of neuregulin variants towards cardiomyocytes (ErbB4) versus Schwann cells (ErbB3) was tested by measuring Akt activity generated by formation of the ErbB2/ErbB4 and ErbB2/ErbB3 complexes. Upon activation by neuregulin, the ErbB4 and ErbB3 receptors dimerize preferentially with the ErbB2 co-receptor, forming the ErbB2/ErbB4 complex in cardiomyocytes and the ErbB2/ErbB3 complex in Schwann cells, both of which signal through the Akt pathway. Neonatal rat cardiomyocytes were isolated from hearts of Sprague Dawley rat pups at 0 to 4 days old according to manufacturer's protocol using the Neomyt kit and plated on Surecoat plates in NS media containing serum (all from Cellultron Life Technologies, Baltimore, MD). Rat Schwann cells were plated in Poly-D-Lysine coated plates with Dulbecco's modified Eagle's media (DMEM) supplemented with fetal bovine serum (Thermo Fisher) and forskolin (Millipore Sigma).
(§3) After a 24-hour incubation in a humidified incubator maintained at 37° C. and 5% CO2, cardiomyocytes and Schwann cells were washed with serum free media and incubated an additional 16 hours in DMEM supplemented with bovine serum albumin (Sigma). Both cell lines were then treated with titrations of the neuregulin variant molecules for 15 minutes, upon which cells were lysed in lysis buffer (Meso Scale Discovery (MSD)). For detection of Akt phosphorylation, lysates were added to the Multi-Spot 96-Well 4-Spot Phospho (Serine 473)/Total Akt plates (MSD), incubated according to the manufacturer's protocol and read in the SECTOR Imager 6000 (MSD). For both cell assays, the percent phosphorylation of Akt was calculated by multiplying the phospho Akt signal by 2, then dividing by the phospho Akt signal added to the total Akt signal and then multiplying by 100. The phosphorylation of Akt data points were fitted using a log (agonist) versus response, variable slope (4 parameters) analysis in GraphPad Prism to generate EC50 curves. The CM % agonism reflect the top value of the data points.

ErbB3 = target: T2, ErbB3 (Rattus norvegicus, UniProt Q62799); assay: In vitro phosphorylation of Akt in rat Schwann cells; type: cell-based; details: Akt (Serine 473) phosphorylation, 15 minutes treatment; for EC50: read-out: Schwann cells (SC) (ErbB3) Avg EC50
T2 construct: forming the ErbB2/ErbB4 complex in cardiomyocytes and the ErbB2/ErbB3 complex in Schwann cells; endogenous in cells; host or cells: rat Schwann cells
Experimental: as §1, §2, §3

T1 sequence (Q62956 26-1308): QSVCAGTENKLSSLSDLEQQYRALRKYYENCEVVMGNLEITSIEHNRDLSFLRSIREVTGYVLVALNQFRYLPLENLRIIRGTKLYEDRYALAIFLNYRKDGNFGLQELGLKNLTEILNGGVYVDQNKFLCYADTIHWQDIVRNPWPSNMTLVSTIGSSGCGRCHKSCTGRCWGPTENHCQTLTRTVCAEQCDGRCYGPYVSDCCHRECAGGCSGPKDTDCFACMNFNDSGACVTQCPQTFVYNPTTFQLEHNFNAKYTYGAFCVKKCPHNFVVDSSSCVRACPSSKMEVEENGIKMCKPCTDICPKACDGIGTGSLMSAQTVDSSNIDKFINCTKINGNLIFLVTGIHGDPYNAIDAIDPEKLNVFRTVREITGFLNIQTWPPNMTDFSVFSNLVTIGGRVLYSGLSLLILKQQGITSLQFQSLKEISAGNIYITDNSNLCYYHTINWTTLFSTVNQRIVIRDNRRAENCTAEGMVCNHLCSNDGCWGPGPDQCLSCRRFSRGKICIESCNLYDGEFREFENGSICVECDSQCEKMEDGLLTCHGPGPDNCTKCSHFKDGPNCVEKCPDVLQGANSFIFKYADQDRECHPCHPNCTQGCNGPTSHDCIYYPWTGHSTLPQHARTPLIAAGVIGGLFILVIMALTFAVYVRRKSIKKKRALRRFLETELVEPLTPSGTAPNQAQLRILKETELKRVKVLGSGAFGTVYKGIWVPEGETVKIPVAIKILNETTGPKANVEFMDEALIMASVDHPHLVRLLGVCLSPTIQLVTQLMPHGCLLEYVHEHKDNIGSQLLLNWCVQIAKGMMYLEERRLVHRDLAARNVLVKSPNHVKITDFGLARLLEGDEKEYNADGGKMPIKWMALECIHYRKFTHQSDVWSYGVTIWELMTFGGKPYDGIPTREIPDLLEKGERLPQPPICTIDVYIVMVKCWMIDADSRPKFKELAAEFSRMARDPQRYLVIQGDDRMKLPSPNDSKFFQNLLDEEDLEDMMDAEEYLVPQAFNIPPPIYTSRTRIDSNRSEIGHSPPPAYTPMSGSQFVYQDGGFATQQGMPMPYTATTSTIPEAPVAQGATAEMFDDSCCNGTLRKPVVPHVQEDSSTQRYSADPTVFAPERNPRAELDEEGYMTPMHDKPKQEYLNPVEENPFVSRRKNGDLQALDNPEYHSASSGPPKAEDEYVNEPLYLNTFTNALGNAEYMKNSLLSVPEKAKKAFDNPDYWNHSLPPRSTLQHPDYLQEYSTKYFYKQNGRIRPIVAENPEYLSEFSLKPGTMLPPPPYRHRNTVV
T1 sequence (P06494 23-1257 partner): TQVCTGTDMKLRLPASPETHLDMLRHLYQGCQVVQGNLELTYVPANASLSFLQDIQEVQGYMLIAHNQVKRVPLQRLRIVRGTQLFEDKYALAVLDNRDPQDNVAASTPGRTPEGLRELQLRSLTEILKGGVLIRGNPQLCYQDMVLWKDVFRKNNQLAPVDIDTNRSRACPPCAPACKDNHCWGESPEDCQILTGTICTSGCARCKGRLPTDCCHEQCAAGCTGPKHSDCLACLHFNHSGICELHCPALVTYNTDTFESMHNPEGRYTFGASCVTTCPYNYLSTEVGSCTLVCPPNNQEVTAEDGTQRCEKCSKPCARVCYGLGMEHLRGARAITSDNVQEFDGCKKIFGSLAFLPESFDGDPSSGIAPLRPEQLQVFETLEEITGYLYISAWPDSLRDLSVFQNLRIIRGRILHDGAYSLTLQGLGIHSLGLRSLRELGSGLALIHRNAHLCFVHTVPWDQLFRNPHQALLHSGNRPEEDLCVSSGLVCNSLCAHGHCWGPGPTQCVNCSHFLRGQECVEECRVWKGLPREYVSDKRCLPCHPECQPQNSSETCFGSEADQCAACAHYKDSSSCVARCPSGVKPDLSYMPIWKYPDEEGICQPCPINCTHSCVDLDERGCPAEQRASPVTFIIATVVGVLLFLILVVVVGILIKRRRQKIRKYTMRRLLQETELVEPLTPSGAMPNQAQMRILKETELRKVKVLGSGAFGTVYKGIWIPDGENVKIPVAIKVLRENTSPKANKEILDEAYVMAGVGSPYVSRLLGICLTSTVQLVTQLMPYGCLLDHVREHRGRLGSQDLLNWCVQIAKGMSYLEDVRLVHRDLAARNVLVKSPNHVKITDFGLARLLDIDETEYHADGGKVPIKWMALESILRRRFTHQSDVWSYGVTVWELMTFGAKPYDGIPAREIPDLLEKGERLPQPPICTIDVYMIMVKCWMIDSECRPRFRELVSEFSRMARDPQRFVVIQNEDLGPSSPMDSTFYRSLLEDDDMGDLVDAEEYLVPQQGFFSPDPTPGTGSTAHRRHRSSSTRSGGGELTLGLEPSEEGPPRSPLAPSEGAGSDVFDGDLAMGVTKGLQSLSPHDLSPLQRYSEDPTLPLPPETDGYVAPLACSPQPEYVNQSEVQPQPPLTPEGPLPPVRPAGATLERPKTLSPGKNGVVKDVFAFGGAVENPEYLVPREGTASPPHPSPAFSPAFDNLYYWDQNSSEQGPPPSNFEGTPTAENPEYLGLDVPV
T2 sequence (Q62799 20-1339): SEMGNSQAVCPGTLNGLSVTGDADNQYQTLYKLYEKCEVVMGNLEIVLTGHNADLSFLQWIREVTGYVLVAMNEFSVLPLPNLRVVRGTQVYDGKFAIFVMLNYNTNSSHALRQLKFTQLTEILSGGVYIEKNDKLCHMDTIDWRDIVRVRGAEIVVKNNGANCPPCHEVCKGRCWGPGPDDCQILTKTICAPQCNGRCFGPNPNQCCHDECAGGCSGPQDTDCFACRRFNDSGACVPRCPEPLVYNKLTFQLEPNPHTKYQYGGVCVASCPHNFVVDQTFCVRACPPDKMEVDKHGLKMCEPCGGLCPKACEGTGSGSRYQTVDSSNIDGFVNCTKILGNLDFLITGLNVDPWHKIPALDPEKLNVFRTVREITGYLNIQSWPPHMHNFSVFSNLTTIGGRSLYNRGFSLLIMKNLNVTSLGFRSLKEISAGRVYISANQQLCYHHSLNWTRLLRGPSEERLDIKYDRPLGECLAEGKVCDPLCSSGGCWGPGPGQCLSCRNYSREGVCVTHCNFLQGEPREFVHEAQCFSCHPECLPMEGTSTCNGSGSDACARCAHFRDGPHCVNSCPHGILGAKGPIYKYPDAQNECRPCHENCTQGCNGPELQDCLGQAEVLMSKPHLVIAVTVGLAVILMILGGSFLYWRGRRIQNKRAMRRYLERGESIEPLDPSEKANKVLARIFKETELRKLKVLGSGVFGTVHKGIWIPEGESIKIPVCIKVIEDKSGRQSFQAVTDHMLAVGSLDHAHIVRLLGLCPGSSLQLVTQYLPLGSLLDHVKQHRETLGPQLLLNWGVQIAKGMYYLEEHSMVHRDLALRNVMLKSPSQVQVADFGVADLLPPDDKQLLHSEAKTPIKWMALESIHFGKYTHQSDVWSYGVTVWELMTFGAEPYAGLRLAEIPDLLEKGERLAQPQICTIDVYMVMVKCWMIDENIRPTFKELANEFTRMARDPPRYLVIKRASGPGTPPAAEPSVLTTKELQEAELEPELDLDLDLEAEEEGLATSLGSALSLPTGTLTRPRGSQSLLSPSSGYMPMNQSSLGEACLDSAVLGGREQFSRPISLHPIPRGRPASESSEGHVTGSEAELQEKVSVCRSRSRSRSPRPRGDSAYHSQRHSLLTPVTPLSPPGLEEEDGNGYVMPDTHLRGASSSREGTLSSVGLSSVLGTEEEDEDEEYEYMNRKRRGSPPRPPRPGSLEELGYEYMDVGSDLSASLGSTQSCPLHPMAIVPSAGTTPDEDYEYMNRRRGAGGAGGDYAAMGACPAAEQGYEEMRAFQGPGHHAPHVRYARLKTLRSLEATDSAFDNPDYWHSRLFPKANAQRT
T2 sequence (P06494 23-1257 partner): as the sequence (P06494 23-1257 partner) above

B1: huNRG1(S177-F229)(NRGE1C) (E47S_D48A_F49L_M50T) 6xHis: 6xHis-tagged NRG1 variant SEQ ID NO:122; ErbB4 selective agonist without Fc of Example 3 (protein)
chain: SHLVKCGEKHKSFCVNGGECFMIEGPSNPSRYLCKCPNEFTGDRCQSALTASFGGGGEGGGGAGGGGHHHHHH
modifications: 6xHis tag; huNRG1(S177-F229)(NRGE1C) (E47S_D48A_F49L_M50T) 6xHis
EC50 (ErbB4): 0.695 nM
Selectivity SC/CM (ErbB4): >10000
CM % Agonism AVG (ErbB4): 85.89%
EC50 (ErbB3): 10000 nM

B4: huNRG1(S177-F229)(NRGE1C) (E47S_D48T_F49R_M50V) 6xHis: 6xHis-tagged NRG1 variant SEQ ID NO:123 (protein)
chain: B1 chain with A48T, L49R, T50V
modifications: 6xHis tag; huNRG1(S177-F229)(NRGE1C) (E47S_D48T_F49R_M50V) 6xHis
EC50 (ErbB4): 0.58 nM
Selectivity SC/CM (ErbB4): >10000
CM % Agonism AVG (ErbB4): 87.47%
EC50 (ErbB3): 10000 nM

B7: huNRG1(S177-F229)(NRGE1D) (E47S_D48S_F49E_M50L) 6xHis: 6xHis-tagged NRG1 variant SEQ ID NO:128 (protein)
chain: B1 chain with K9S, F21Y, I23V, P26S, N28I, A48S, L49E, T50L
modifications: 6xHis tag; huNRG1(S177-F229)(NRGE1D) (E47S_D48S_F49E_M50L) 6xHis
EC50 (ErbB4): 0.557 nM
Selectivity SC/CM (ErbB4): >10000
CM % Agonism AVG (ErbB4): 96.05%
EC50 (ErbB3): 10000 nM

B8: huNRG1(S177-F229) 6xHis: 6xHis-tagged NRG1 fragment S177-F229 without variant mutations (protein)
chain: SHLVKCAEKEKTFCVNGGECFMVKDLSNPSRYLCKCPNEFTGDRCQNYVMASFGGGGEGGGGAGGGGHHHHHH
modifications: 6xHis tag; huNRG1(S177-F229) 6xHis
notes: 6xHis-tagged NRG1 fragment S177-F229 without variant mutations
EC50 (ErbB4): 0.587 nM
Selectivity SC/CM (ErbB4): 6.165
CM % Agonism AVG (ErbB4): 97.51%
EC50 (ErbB3): 3.62 nM

B9: :huFcSEFL2(desK)vl31(+):G4SG4:huNRG1(S177-F229)(NRGE1C): N-terminal Fc fusion of NRG1 variant SEQ ID NO:117 (protein)
chain: DKTHTCPPCPAPELLGGPSVFLFPPKPKDTLMISRTPEVTCVVVDVSHEDPEVKFNWYVDGVEVHNAKTKPCEEQYGSTYRCVSVLTVLHQDWLNGKEYKCKVSNKALPAPIEKTISKAKGQPREPQVYTLPPSREKMTKNQVSLTCLVKGFYPSDIAVEWESNGQPENNYKTTPPVLKSDGSFFLYSKLTVDKSRWQQGNVFSCSVMHEALHNHYTQKSLSLSPGGGGGSGGGGSHLVKCGEKHKSFCVNGGECFMIEGPSNPSRYLCKCPNEFTGDRCQEDFMASFDKTHTCPPCPAPELLGGPSVFLFPPKPKDTLMISRTPEVTCVVVDVSHEDPEVKFNWYVDGVEVHNAKTKPCEEQYGSTYRCVSVLTVLHQDWLNGKEYKCKVSNKALPAPIEKTISKAKGQPREPQVYTLPPSREEMTENQVSLTCLVEGFYPSDIAVEWESNGQPENNYETTPPVLDSDGSFFLYSDLTVDKSRWQQGNVFSCSVMHEALHNHYTQKSLSLSPGK
modifications: huFcSEFL2(desK)v131(+)G4SG4huNRG1(S177-F229) (NRGE1C)
EC50 (ErbB4): 6.4 nM
Selectivity SC/CM (ErbB4): >10000
CM % Agonism AVG (ErbB4): 62.7%
Schwann cells (SC) (ErbB3) Avg EC50 (M) (ErbB3): inactive

B10: :huFcSEFL2(desK)vl31(+):G4SG4:huNRG1(S177-F229)(NRGE1D): N-terminal Fc fusion of NRG1 variant SEQ ID NO:126 (protein)
chain: B9 chain with K244S, F256Y, I258V, P261S, N263I
modifications: huFcSEFL2(desK)v131(+)G4SG4huNRG1(S177-F229) (NRGE1D)
EC50 (ErbB4): 4.3 nM
Selectivity SC/CM (ErbB4): >10000
CM % Agonism AVG (ErbB4): 72.3%
Schwann cells (SC) (ErbB3) Avg EC50 (M) (ErbB3): inactive

Molecules with a lower EC50 (ErbB4), results first:

EC50 (ErbB4): 0.311 nM
Selectivity SC/CM (ErbB4): 55.4019
CM % Agonism AVG (ErbB4): 91.65%
EC50 (ErbB3): 17.2 nM
B2: huNRG1(S177-F229)(NRGE1D) (E47K_D48L_F49D_M50I) 6xHis: 6xHis-tagged NRG1 variant SEQ ID NO:127 (protein)
chain: B1 chain with K9S, F21Y, I23V, P26S, N28I, S47K, A48L, L49D, T50I
modifications: 6xHis tag; huNRG1(S177-F229)(NRGE1D) (E47K_D48L_F49D_M50I) 6xHis

EC50 (ErbB4): 0.224 nM
Selectivity SC/CM (ErbB4): >10000
CM % Agonism AVG (ErbB4): 97.95%
EC50 (ErbB3): 10000 nM
B3: huNRG1(S177-F229)(NRGE1D) (E47V_D48T_F49R_M50L) 6xHis: 6xHis-tagged NRG1 variant SEQ ID NO:130 (protein)
chain: B1 chain with K9S, F21Y, I23V, P26S, N28I, S47V, A48T, L49R, T50L
modifications: 6xHis tag; huNRG1(S177-F229)(NRGE1D) (E47V_D48T_F49R_M50L) 6xHis

EC50 (ErbB4): 0.33 nM
Selectivity SC/CM (ErbB4): >10000
CM % Agonism AVG (ErbB4): 99.83%
EC50 (ErbB3): 10000 nM
B5: huNRG1(S177-F229)(NRGE1D) (E47T_D48S_F49L_M50L) 6xHis: 6xHis-tagged NRG1 variant SEQ ID NO:129 (protein)
chain: B1 chain with K9S, F21Y, I23V, P26S, N28I, S47T, A48S, T50L
modifications: 6xHis tag; huNRG1(S177-F229)(NRGE1D) (E47T_D48S_F49L_M50L) 6xHis

EC50 (ErbB4): 0.39 nM
Selectivity SC/CM (ErbB4): >10000
CM % Agonism AVG (ErbB4): 90.65%
EC50 (ErbB3): 10000 nM
B6: huNRG1(S177-F229)(NRGE1D) 6xHis: 6xHis-tagged NRG1 variant SEQ ID NO:126 (protein)
chain: B1 chain with K9S, F21Y, I23V, P26S, N28I, S47E, A48D, L49F, T50M
modifications: 6xHis tag; huNRG1(S177-F229)(NRGE1D) 6xHis
